Results from article PMC5549631.

Columns and labels:
[1] = target: acidic patch mutant nucleosome (H2A E61A, E64A, D90, E92A) (Xenopus) (UniProt P06897)
[2] = target: acidic patch mutant nucleosome (H2A E61A, E64A, D90, E92A) (Xenopus) (UniProt P06897); assay: other fluorescence titration
[3] = target: recombinant nucleosome labelled with Oregon Green 488 on histone H4 Q27C (Xenopus) (UniProt P62799); assay: other fluorescence titration

Substance	histone methyltransferase activity on acidic patch mutant nucleosomes [1] [%]	Kd [2] [nM]	Kd [3] [nM]	fold decrease of nucleosome binding affinity against Set8(153-352) [3] [fold]
Set8(153-352) (from UniProt Q9NQR1-2 153-352) (domain or fragment)	5.4	1300	7.9	–
Set8(153-352) R179A, K180A (from UniProt Q9NQR1-2 153-352) (domain or fragment)	–	–	–	2.5
Set8(153-352) R188A, R189A (from UniProt Q9NQR1-2 153-352) (domain or fragment)	–	–	2500	–
Set8(175-352) (from UniProt Q9NQR1-2 175-352) (domain or fragment)	–	–	1800	–

Further lines, results first:

histone methyltransferase activity on acidic patch mutant nucleosomes [1] [%]	Kd [2] [nM]	Kd [3] [nM]	fold decrease of nucleosome binding affinity against Set8(153-352) [3] [fold]	Substance
–	–	4.5	–	Set8(153-352) H347F (from UniProt Q9NQR1-2 153-352) (domain or fragment)
–	60	5.3	–	full length Set8 (from UniProt Q9NQR1-2 1-352) (enzyme)
